Data as given in patent publication US20230175000, “MAIZE GENE ZMRAVL1 AND FUNCTIONAL SITE AND USE THEREOF” (CHINA AGRICULTURAL UNIVERSITY, published 2023).

Biological target: T1, DRL1 (Drooping leaf1, YABBY C2C2) (Zea mays, UniProt A0A804LG43 A0A804LG43:1-207)
T1 sequence: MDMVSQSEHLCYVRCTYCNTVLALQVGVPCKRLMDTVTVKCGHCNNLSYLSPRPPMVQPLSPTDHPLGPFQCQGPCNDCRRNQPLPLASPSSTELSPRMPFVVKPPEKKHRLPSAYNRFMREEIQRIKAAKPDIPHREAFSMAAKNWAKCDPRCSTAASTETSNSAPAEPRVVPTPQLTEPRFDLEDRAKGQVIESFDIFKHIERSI
Test: EMSA; room temperature 20 min; band slightly brighter than W22 probe; competed by unlabeled probe
Conditions: tags: His fusion (PET32a, E. coli Rosetta, nickel beads); label: biotin
Procedure: EMSA (electrophoretic mobility shift assay) was carried out to validate the above speculation. First of all, biotin-labeled EMSA probes (UPA2-NIL^W22 biotin probes: UPA2-NIL^W22-F, UPA2-NIL^W22-R; UPA2-NIL^W22 competitive probe: UPA2-NIL^W22-com-F, UPA2-NIL^W22-com-R; UPA2-NIL⁸⁷⁵⁹ biotin probes: UPA2-NIL⁸⁷⁵⁹-F, UPA2-NIL⁸⁷⁵⁹-R; UPA2-NIL⁸⁷⁵⁹ competitive probe: UPA2-NIL⁸⁷⁵⁹-com-F, UPA2-NIL⁸⁷⁵⁹-com-R) were designed for the sequences of UPA2-NIL^W22 and UPA2-NIL⁸⁷⁵⁹ respectively. The probe included a C2C2-binding motif and upstream and downstream flanking sequences (each 22 bp). In the meantime, the corresponding sequences that were not labeled with biotin were synthesized as competitive probes. Next, the DRL1 CDS region was recombined onto a PET32a prokaryotic expression vector by a homologous recombination method to construct an expression vector of DRL1-His fusion proteins and it was introduced into the expression strain Rosetta to induce the expression of the DRL1-His fusion proteins. Finally, the DRL1-His fusion proteins were obtained through purification using Nickel beads. […]

B1: UPA2-NIL8759 probe (dsDNA)
DNA 1: AACTGCGCATGCGCGCGCTGAGTGTGGTCCTTCTCTTTTAATTACTACTG
DNA 2: CAGTAGTAATTAAAAGAGAAGGACCACACTCAGCGCGCGCATGCGCAGTT
  binding result: binds
